Biological target: T1, GroEL homologue from secondary endosymbiotic bacteria of the whitefly Bemisia tabaci (endosymbiotic bacteria of Bemisia tabaci, UniProt C4K477 1-552)
T1 construct: Chaperonin expressed in planta and assayed in plant sap; also called whitefly GroEL; B. tabaci GroEL
Assay: capture of sap of infected GroEL-transgenic N. benthamiana (7 dpi) in anti-GroEL coated tubes; RT-PCR and Western blot with virus-specific antibodies
Procedure: Transgenic and non-transgenic N. benthamiana plants were mechanically inoculated with GVA and with TMV. Infection was assessed by RT-PCR and by Western blot analyses at 5-7 dpi (FIGS. 12A and 13A). The possible binding of GVA and TMV particles to GroEL in transgenic N. benthamiana plants was assessed as described above. Sap of infected transgenic plants at 7 dpi was incubated in PCR tubes coated with anti-GroEL antibody. Binding of GroEL-virus complexes to the coated tubes was assayed by RT-PCR and with virus-specific antibodies.

B1: Grapevine virus A (GVA) (other)
chain: MAHYAKRVEIRAIIEELVLAKAQPTDDASESGYDRNMYLNTLFGYIALVGTSKKAIHYGEVDIVGPKASKKTGIDPRGKMVVSELVGRMRTLSVAVSEGPVKGATLRQMCEPFAQNAYDFLVVMAEMGTYSQLATKMTRSGFKEPQVMFDFASGLDLKALTLQEATVIQAMHSRLFRTEGAKGVFNAQSSIGEQAVEI
notes: The partner in the assay is the whole filamentous virus particle in plant sap
B1: no binding.

— patent US20100115665A1 (published 2010)
